Measurements published in article PMC10242683, “Catalytic Cycle of the Bifunctional Enzyme Phosphoribosyl-ATP Pyrophosphohydrolase/Phosphoribosyl-AMP Cyclohydrolase” (ACS Catalysis, 2023).

T1: phosphoribosyl-ATP pyrophosphohydrolase/phosphoribosyl-AMP cyclohydrolase (AbHisIE) (Acinetobacter baumannii, UniProt V5VH18)
T1 construct: gene hisIE; full-length AbHisIE (A. baumannii strain ATCC17978), recombinant
T1 sequence (V5VH18 1-257): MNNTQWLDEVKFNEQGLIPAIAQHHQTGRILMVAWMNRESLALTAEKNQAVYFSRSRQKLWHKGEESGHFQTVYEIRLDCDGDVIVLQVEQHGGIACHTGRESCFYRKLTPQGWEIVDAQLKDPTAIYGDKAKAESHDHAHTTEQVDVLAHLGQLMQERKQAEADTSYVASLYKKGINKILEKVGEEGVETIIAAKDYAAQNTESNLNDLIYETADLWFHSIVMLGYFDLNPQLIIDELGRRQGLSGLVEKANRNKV


Tests used:
[1] = biological target: T1, phosphoribosyl-ATP pyrophosphohydrolase/phosphoribosyl-AMP cyclohydrolase (AbHisIE); test: initial rates of ProFAR formation from PRATP at […] nm, dose-response with purified AbHisIE; format: biochemical
purified protein [2] = substrate: N=c1c2ncn([C@@H]3O[C@H](COP(=O)(O)O)[C@@H](O)[C@H]3O)c2ncn1[C@@H]1O[C@H](COP(=O)(O)O)[C@@H](O)[C@H]1O; test: purified protein; format: biochemical, Acinetobacter baumannii; settings: Zn2+ (HisI-like domain) cyclohydrolase active site in the N-terminal HisI-like domain
purified protein [3] = substrate: N=c1c2ncn([C@@H]3O[C@H](COP(=O)(O)OP(=O)(O)OP(=O)(O)O)[C@@H](O)[C@H]3O)c2ncn1[C@@H]1O[C@H](COP(=O)(O)O)[C@@H](O)[C@H]1O; test: purified protein; format: biochemical, Acinetobacter baumannii; settings: Mg2+ (HisE-like domain); Zn2+ (HisI-like domain) pyrophosphohydrolase active site in the C-terminal HisE-like domain

Molecule | IC50 [1] [µM] | Km (purified protein [2]) [µM] | Km (purified protein [3]) [µM] | kcat (purified protein [3]) [s⁻¹]
N=c1c2ncn([C@@H]3O[C@H](COP(=O)(O)OP(=O)(O)O)[C@@H](O)[C@H]3O)c2ncn1[C@@H]1O[C@H](COP(=O)(O)O)[C@@H](O)[C@H]1O [PRADP] | 52 ± 4 |  |  | 
phosphoribosyl-ATP pyrophosphohydrolase/phosphoribosyl-AMP cyclohydrolase (AbHisIE) (Acinetobacter baumannii) (protein, full-length AbHisIE (A. baumannii strain ATCC17978), recombinant) MNNTQWLDEVKFNEQGLIPAIAQHHQTGRILMVAWMNRESLALTAEKNQAVYFSRSRQKLWHKGEESGHFQTVYEIRLDCDGDVIVLQVEQHGGIACHTGRESCFYRKLTPQGWEIVDAQLKDPTAIYGDKAKAESHDHAHTTEQVDVLAHLGQLMQERKQAEADTSYVASLYKKGINKILEKVGEEGVETIIAAKDYAAQNTESNLNDLIYETADLWFHSIVMLGYFDLNPQLIIDELGRRQGLSGLVEKANRNKV |  | 11 | 4.0 ± 0.7 | 5.6 ± 0.3
